Measurements reported in patent publication US20230304010A1 (AADIGEN, published 2023).
Values joined by “and” are separate entries in the source; they are usually repeats but may differ in a detail not shown here. Equal entries are not always repeated.

B1: Seq28 (LNCOV-20)/ADGN-106 nanoparticle complex (other)
peptide 1: KTFLDKFNHEAEDLFPGPKWSAFLKEQSTLAQMYG
peptide 2: LWRALWRLWRSLWRLLWK
B2: Seq27 (LNCOV-27)/ADGN-106 nanoparticle complex (other)
peptide 1: EQAKTFLDKFNHEAEDLFPKWSAFLKEQSTLAQMYG
peptide 2: LWRALWRLWRSLWRLLWK

What was measured:
SARS-CoV-2 Spike [1] = target: T1, SARS-CoV-2 Spike (SARS-CoV-2, UniProt P0DTC2 16-685); assay: inhibitor screening kit, ADGN-106 nanoparticles (Example 6, section A)
SARS-CoV-2 Spike [2] = target: T1, SARS-CoV-2 Spike
SARS-CoV-2 Spike [3] = target: T1, SARS-CoV-2 Spike; assay: inhibitor screening kit, ADGN-106 nanoparticles (Example 6, section B)

Binder	fold more potent than SBP-1-ADGN-106/ADGN-106 complex (SARS-CoV-2 Spike [1]) [fold]	fold more potent than SBP-1 peptide/ADGN-106 complex (SARS-CoV-2 Spike [1]) [fold]	IC50 (SARS-CoV-2 Spike [2])	fold more potent than SBP-1-ADGN-106/ADGN-106 complex (SARS-CoV-2 Spike [3]) [fold]	fold more potent than SBP-1 peptide/ADGN-106 complex (SARS-CoV-2 Spike [3]) [fold]
B1	6	40	2.7 nM and 2.1 nM	4	35
B2	6	40	1.8 nM and 1.1 nM	4	35
